In publication PMC4705661, “Tetramerization and interdomain flexibility of the replication initiation controller YabA enables simultaneous binding to multiple partners” (Nucleic Acids Research, 2015):

Columns and labels:
[1] = target: the molecule itself; assay: SEC-MALS; YabA loaded at 2.5 mg.ml^-1 (100 μl) on Superdex 200 HR 10/30; 50 mM Tris pH 8.0, 150 mM NaCl
[2] = target: the molecule itself; assay: SEC-MALS; YabA1-58 and YabA70-119 loaded at 5 mg.ml^-1 (100 μl) on a Superdex 75 column; 50 mM Tris pH 8.0, 150 mM NaCl
[3] = target: the molecule itself; assay: crystal structure; form I crystals, space group P3(2)21, 2.7 Å; 20% PEG 3350, 100 mM Bis-Tris propane pH 6.5, 200 mM potassium thiocyanate

B1: YabA (full length, purified recombinant) (natural protein)
chain: not shown
notes: expressed from pET151/D-TOPO; also called recombinant YabA; full length YabA; source: E. coli BL21 (DE3), purified (HisTrap, TEV cleavage, Superdex 200)
In the case of B1, the “stoichiometry N” value [1] is reported as 4.

B2: YabA^1–58 (domain or fragment, B. subtilis, UniProt P37542 1-58, looked up)
chain: MDKKELFDTVINLEEQIGSLYRQLGDLKQHIGEMIEENHHLQLENKHLRKRLDDTTQQ
notes: YabA, B. subtilis strain 168, residues 1-58; tag removed by HRV 3C protease; also called NTD fragment; N-terminal fragment YabA1-58; not shown: His-tag, N-terminal, cleaved
With B2 the “stoichiometry N” value [2] was 4.

B3: YabA^1–62 (crystallized N-terminal domain fragment) (domain or fragment, B. subtilis, UniProt P37542 1-62, looked up)
chain: MDKKELFDTVINLEEQIGSLYRQLGDLKQHIGEMIEENHHLQLENKHLRKRLDDTTQQIEKF
notes: YabA, B. subtilis strain 168; form I crystals (2.7 Å) grew from the purified YabA/DnaN complex, form II crystals from YabA alone; two chains per asymmetric unit, tetramer by crystal symmetry; also called YabA NTD; YabA-NTD; source: E. coli BL21 (DE3), purified; fragment left by proteolysis during crystallization
For B3, the “stoichiometry N” value [3] was 4.
